Results from the supplement of paper PMC10065799, “High-throughput profiling of sequence recognition by tyrosine kinases and SH2 domains using bacterial peptide display” (eLife, 2023).

What was measured:
Fes = Fes (UniProt P07332); experiment: phosphorylation enrichment, bacterial display (enrichment ratio); higher = better substrate or ligand; peptides without Tyr show the background
Fyn = Fyn (UniProt P06241); experiment: as above
FGFR3 = FGFR3 (UniProt P22607); experiment: as above
MERTK = MERTK (UniProt Q12866); experiment: as above
EPHB2 = EPHB2 (UniProt P29323); experiment: as above
EPHB2, sequence (P29323 whole entry, looked up): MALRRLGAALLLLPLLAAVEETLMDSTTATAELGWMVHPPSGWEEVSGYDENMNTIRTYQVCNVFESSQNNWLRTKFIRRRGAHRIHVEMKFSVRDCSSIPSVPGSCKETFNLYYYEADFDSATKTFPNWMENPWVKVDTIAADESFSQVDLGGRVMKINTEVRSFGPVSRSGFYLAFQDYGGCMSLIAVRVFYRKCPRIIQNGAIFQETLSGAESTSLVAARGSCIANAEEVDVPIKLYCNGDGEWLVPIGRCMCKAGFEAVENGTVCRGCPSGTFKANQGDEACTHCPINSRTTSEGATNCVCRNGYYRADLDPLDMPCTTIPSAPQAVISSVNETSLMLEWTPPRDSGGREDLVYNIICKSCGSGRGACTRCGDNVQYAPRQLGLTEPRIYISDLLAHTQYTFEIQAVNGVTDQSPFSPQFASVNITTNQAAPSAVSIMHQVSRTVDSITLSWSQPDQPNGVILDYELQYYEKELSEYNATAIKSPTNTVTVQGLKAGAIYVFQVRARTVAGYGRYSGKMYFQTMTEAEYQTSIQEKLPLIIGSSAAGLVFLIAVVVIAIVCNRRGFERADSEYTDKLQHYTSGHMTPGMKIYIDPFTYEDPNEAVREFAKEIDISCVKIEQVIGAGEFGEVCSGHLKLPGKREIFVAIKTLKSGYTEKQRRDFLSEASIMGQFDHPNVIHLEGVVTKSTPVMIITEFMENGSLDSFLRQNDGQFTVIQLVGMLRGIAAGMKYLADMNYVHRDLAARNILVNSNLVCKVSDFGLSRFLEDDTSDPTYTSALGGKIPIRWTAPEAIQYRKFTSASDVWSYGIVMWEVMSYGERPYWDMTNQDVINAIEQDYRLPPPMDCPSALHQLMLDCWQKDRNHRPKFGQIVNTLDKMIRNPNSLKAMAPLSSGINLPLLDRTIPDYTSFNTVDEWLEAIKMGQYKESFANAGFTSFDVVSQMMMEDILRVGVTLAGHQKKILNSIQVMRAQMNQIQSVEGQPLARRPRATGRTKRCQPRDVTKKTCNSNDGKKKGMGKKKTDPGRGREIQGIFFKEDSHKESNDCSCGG

FGFR1 = FGFR1 (UniProt P11362); experiment: as above
FGFR1, sequence (P11362 whole entry, looked up): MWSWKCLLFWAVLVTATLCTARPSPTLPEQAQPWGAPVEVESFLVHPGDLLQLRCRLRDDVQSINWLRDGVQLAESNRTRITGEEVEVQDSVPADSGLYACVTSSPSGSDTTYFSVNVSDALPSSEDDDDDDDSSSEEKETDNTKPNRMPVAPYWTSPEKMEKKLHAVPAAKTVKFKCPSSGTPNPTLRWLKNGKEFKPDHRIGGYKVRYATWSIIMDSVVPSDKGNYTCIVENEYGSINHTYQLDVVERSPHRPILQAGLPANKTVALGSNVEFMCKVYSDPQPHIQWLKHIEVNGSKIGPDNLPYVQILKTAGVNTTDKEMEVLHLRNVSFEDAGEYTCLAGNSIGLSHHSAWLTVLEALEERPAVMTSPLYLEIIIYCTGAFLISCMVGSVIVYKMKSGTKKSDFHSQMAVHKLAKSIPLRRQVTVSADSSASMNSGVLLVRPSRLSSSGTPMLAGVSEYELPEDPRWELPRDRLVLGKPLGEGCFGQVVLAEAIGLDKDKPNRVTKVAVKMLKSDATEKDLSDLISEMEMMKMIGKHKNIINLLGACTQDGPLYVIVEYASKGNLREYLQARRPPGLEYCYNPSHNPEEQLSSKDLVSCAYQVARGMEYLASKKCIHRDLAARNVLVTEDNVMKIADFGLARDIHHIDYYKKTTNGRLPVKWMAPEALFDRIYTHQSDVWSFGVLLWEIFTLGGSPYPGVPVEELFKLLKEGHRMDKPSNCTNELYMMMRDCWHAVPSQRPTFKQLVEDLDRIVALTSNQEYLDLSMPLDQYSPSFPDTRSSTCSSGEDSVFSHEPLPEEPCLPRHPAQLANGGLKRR

AncSZ = experiment: as above
Fer (mouse) = experiment: as above
Jak2 = Jak2 (UniProt O60674); experiment: as above
Jak2, sequence (O60674 whole entry, looked up): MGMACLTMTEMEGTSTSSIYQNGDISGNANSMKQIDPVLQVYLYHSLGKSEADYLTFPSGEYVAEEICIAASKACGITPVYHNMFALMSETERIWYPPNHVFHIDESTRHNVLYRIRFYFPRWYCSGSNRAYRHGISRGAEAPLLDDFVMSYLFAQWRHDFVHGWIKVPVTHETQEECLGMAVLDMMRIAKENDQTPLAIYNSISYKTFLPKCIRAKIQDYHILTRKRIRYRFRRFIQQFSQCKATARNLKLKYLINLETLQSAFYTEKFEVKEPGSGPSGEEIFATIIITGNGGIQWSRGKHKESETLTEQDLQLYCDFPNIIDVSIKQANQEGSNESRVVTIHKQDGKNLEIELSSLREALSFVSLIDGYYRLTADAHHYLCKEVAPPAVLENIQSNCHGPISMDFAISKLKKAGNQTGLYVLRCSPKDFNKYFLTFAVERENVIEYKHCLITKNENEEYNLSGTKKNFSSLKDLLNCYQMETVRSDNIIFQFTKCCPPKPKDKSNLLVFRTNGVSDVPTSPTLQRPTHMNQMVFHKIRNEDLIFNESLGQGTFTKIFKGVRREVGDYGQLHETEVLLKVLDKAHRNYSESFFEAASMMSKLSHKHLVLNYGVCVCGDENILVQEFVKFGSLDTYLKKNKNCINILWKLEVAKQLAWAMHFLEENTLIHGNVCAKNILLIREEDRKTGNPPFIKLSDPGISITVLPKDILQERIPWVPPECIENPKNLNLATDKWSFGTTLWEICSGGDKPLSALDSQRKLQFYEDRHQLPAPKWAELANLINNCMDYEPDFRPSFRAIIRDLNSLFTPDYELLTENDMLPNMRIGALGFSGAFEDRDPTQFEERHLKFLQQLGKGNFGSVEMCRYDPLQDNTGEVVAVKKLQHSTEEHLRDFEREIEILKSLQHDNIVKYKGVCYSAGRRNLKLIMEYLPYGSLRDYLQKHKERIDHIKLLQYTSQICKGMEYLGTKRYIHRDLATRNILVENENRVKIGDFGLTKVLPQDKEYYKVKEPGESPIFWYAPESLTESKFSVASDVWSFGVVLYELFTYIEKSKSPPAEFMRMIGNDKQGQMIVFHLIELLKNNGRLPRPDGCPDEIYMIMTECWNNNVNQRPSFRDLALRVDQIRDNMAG

EPHB1 = EPHB1 (UniProt P54762); experiment: as above
c-Src = experiment: as above
c-Abl (mouse) = experiment: as above
Hck = Hck (UniProt P08631); experiment: as above
Hck, sequence (P08631 whole entry, looked up): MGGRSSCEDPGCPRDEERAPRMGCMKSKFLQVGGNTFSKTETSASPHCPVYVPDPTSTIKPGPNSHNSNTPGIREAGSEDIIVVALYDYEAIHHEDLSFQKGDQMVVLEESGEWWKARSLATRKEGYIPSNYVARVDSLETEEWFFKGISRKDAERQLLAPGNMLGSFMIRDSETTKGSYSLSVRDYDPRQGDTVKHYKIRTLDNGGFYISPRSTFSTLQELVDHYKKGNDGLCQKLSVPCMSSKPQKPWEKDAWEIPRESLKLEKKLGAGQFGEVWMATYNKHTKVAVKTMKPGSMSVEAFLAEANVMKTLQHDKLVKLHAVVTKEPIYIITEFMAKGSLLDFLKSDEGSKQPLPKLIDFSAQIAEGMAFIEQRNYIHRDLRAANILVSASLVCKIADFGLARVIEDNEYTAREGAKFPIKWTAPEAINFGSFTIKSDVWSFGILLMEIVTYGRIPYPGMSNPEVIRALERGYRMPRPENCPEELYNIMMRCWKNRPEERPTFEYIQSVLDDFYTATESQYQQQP

SHP2-C SH2 = experiment: SH2 binding enrichment of the phosphorylated peptide, bacterial display (enrichment ratio); higher = better substrate or ligand; peptides without Tyr show the background
Grb2 SH2 = Grb2 SH2 (UniProt P62993); experiment: as above
c-Src SH2 = experiment: as above
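Wherever SH2 binding enrichment of the phosphorylated peptide, bacterial display is given: peptide library displayed on the E. coli surface as eCPX fusions, selected cells deep-sequenced, score is each peptide's frequency after selection divided by its frequency in the input.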
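Wherever phosphorylation enrichment, bacterial display is given: 11-residue human phosphosite peptides and single-mutation variants displayed on the E. coli surface, counted by deep sequencing, each peptide's frequency after selection divided by its frequency in the unselected input library; frequency after pTyr selection over input frequency; kinase dosed for 20-30% of maximal phosphorylation in three min.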

Fes, sequence (P07332 whole entry, looked up): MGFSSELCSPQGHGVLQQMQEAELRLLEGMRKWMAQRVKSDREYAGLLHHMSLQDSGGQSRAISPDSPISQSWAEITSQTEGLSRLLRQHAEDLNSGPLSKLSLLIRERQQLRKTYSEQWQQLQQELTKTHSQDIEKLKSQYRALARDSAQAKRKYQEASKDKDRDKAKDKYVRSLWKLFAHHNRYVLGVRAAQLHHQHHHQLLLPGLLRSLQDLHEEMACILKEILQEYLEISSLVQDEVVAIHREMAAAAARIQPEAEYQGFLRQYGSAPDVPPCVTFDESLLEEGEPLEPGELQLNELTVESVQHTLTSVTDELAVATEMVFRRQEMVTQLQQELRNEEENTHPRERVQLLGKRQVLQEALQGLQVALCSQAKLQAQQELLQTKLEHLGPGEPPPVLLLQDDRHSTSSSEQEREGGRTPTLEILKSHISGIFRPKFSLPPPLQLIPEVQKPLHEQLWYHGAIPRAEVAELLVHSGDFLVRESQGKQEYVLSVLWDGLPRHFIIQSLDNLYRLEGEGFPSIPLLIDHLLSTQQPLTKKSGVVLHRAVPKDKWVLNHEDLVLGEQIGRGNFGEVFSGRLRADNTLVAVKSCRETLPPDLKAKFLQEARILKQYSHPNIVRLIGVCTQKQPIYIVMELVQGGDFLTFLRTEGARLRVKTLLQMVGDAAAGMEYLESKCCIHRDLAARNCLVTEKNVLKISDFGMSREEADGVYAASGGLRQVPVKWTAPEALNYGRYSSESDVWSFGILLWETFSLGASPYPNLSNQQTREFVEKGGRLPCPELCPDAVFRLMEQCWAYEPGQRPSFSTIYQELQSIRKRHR
Fyn, sequence (P06241 whole entry, looked up): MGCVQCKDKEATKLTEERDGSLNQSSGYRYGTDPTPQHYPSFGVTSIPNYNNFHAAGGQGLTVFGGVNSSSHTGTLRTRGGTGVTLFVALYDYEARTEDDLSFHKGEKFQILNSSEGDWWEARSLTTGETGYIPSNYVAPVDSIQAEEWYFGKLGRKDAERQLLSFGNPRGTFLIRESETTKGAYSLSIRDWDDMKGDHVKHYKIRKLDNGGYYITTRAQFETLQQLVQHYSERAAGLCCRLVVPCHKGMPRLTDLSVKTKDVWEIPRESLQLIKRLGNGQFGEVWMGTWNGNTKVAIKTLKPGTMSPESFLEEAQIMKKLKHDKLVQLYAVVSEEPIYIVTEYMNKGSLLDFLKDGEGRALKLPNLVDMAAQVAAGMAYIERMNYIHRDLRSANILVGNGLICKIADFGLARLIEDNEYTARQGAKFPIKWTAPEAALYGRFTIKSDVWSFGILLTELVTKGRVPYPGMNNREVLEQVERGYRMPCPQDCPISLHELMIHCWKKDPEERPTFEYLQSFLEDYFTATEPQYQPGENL

Sequence	SH2 binding enrichment (SHP2-C SH2)	SH2 binding enrichment (Grb2 SH2)	SH2 binding enrichment (c-Src SH2)	phosphorylation enrichment (Fes)	phosphorylation enrichment (Fyn)	phosphorylation enrichment (FGFR3)	phosphorylation enrichment (MERTK)	phosphorylation enrichment (EPHB2)	phosphorylation enrichment (FGFR1)	phosphorylation enrichment (AncSZ)	phosphorylation enrichment (Fer (mouse))	phosphorylation enrichment (Jak2)	phosphorylation enrichment (EPHB1)	phosphorylation enrichment (c-Src)	phosphorylation enrichment (c-Abl (mouse))	phosphorylation enrichment (Hck)
VPLATYMRIYK [RPL21_Y30]	0.55	0.668	0.534	0.958	0.454	0.687	0.412	0.492	0.526	0.887	0.517	1.01	0.511	0.429	0.591	0.477
VPVPGYTKVPE [SPRR3_Y146_L149V]	0.581	0.81	0.56	0.75	0.494	0.789	0.501	0.541	0.437	0.776	0.525	0.769	0.365	0.398	0.615	0.526
VQNIVYRTASI [CYP39A1_Y102]	0.889	0.689	0.447	0.619	0.382	0.442	0.334	0.396	0.414	0.706	0.34	0.581	0.335	0.356	0.467	0.36
VRHRRYKHTHE [CTCF_Y343]	0.714	0.665	0.364	0.654	0.613	0.603	0.684	0.622	0.743	0.759	0.584	0.643	0.55	0.788	0.816	0.631
VRSTEYPCAGL	1.08	1.03	0.615	0.798	0.397	0.497	0.362	0.483	0.447	0.586	0.292	0.713	0.554	0.471	0.611	0.338

The next lines start with results.

SH2 binding enrichment (SHP2-C SH2)	SH2 binding enrichment (Grb2 SH2)	SH2 binding enrichment (c-Src SH2)	Sequence	phosphorylation enrichment (Fes)	phosphorylation enrichment (Fyn)	phosphorylation enrichment (FGFR3)	phosphorylation enrichment (MERTK)	phosphorylation enrichment (EPHB2)	phosphorylation enrichment (FGFR1)	phosphorylation enrichment (AncSZ)	phosphorylation enrichment (Fer (mouse))	phosphorylation enrichment (Jak2)	phosphorylation enrichment (EPHB1)	phosphorylation enrichment (c-Src)	phosphorylation enrichment (c-Abl (mouse))	phosphorylation enrichment (Hck)
0.814	0.816	0.721	VQVAFYTMMMN [SPATA17_Y84_YF]	1.51	0.652	1.99	3.02	1.15	1.84	1.63	1.81	1.6	1.3	0.956	1.03	0.769
0.591	0.963	0.477	VREIRCQGGNR [VWF_Y1570_Y1570C]	0.682	0.401	0.419	0.406	0.432	0.478	0.648	0.296	0.771	0.416	0.5	0.675	0.465
0.542	0.676	0.403	VRFMADTDETF [F8_Y450_Y450D]	1.3	0.54	0.755	0.451	0.644	0.505	1.21	0.628	1.07	0.63	0.471	0.856	0.59
0.76	0.932	0.572	VRLTEYPCAGL	0.781	0.358	0.523	0.367	0.457	0.396	0.638	0.381	0.673	0.456	0.398	0.527	0.428
